Assay results reported in US20260022175A1 (Chugai, published 2026).
Numbering of substitutions follows the chain as printed. Numbers in names are those of the source.

Legend:
[1] = target: T1, human FcγRIIb extracellular domain with C-terminal His-tag (human, UniProt P31994 43-217); experiment: SPR; FcγRIIb at 1000 nM, bound amount per unit captured Ab
T1 construct: extracellular domain; also called hFcγR IIb
T1 sequence (looked up): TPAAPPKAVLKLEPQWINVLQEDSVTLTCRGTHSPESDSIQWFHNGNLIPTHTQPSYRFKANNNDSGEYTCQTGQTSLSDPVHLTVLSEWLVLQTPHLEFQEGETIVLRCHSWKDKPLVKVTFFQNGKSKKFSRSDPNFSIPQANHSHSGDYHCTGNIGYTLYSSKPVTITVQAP
Method: (§1) The interaction between the generated antibodies and human FcγRs was analyzed by the following method using Biacore T200. 50 mM Na-Phosphate, 150 mM NaCl, 0.05% Tween20 (pH 7.4) was used as the running buffer, and the assay was performed at 25° C. For the sensor chips, Series S SA (GE Healthcare) chips onto which CaptureSelect Human Fab-lambda Kinetics Biotin Conjugate (Thermo Fisher Scientific) was immobilized were used. The antibodies of interest were captured onto these chips and each FcγR diluted in the running buffer was allowed to interact with them. Chips were regenerated with 10 mM Glycine-HCl (pH 1.5) and 25 mM NaOH, and assay was performed by repeatedly capturing antibodies. The dissociation constants KD (mol/L) for FcγRs of each antibody were calculated using Biacore T200 Evaluation Software 2.0, using the 1:1 Langmuir binding model for FcγRIa and FcγRIIIa and the steady state affinity model for FcγRIIa. For FcγRIIb, the binding amount of FcγRIIb per unit amount of antibody was calculated by correcting the binding amount of FcγRIIb obtained from the sensorgram obtained by the measurement with the amount of antibody captured onto the chip surface.

[2] = target: T2, human FcγRIa extracellular domain with C-terminal His-tag (human, UniProt P12314 16-292); experiment: SPR; KD of 04H1637-G1m/04L1610-lam1 divided by KD of variant;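 also: biacore T200 SPR at 25 °C, antibodies captured on anti-Fab-lambda SA chip with receptor as analyte, running buffer pH 7.4 for FcγRs and pH 6.0 for FcRn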
T2 construct: extracellular domain; also called hFcγR Ia; hFcγRIa
Method: as §1
(§2) The interaction between the generated antibodies and human FcRn was analyzed by the following method using Biacore T200. 50 mM Na-Phosphate, 150 mM NaCl, 0.05% Tween20 (pH 6.0) was used as the running buffer, and the assay was performed at 25° C. For the sensor chip, Series S SA (GE Healthcare) chips onto which CaptureSelect Human Fab-lambda Kinetics Biotin Conjugate (Thermo Fisher Scientific) was immobilized were used. The antibodies of interest were captured onto these chips and FcRn diluted in the running buffer was allowed to interact with them. Chips were regenerated with 10 mM Glycine-HCl (pH 1.5) and 25 mM NaOH, and assay was performed by repeatedly capturing antibodies. The dissociation constant for FcRn of each antibody was calculated using the steady state model, using Biacore T200 Evaluation Software 2.0.

[3] = target: T3, human FcγRIIa H allotype extracellular domain with C-terminal His-tag (human, UniProt P12318 34-217); experiment: as above
T3 construct: extracellular domain; also called hFcγR IIa H
T3 sequence (looked up): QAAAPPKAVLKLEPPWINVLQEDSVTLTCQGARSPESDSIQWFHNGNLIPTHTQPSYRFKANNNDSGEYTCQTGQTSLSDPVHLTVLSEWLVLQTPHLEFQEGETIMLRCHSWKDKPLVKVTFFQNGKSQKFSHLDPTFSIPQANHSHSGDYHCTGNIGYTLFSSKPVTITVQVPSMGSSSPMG
Method: as §1, §2

[4] = target: T4, human FcγRIIIa V allotype extracellular domain with C-terminal His-tag (human, UniProt P08637 17-208); experiment: as above
T4 construct: extracellular domain; also called hFcγR IIIa V
Method: as §1, §2

human FcRn [5] = target: T5, human FcRn (human, UniProt P55899 24-290; P61769 21-119); experiment: as above
T5 construct: Prepared by the method of WO 2010/107110; also called hFcRn
Method: as §1, §2

[6] = target: T6, human FcγRIIIa F allotype extracellular domain with C-terminal His-tag (human, UniProt P08637 17-208); experiment: as above
T6 construct: extracellular domain; also called hFcγR IIIa F
Method: as §1, §2

[7] = target: T7, human FcγRIIa R allotype extracellular domain with C-terminal His-tag (human, UniProt P12318 34-217); experiment: as above
T7 construct: extracellular domain; also called hFcγR IIa R
T7 sequence (looked up): T3 sequence (looked up) with H134R
Method: as §1, §2

human FcRn [8] = target: T5, human FcRn; experiment: SPR Biacore T200, Ab captured via Fab-lambda, pH 6.0, 25C, steady state
Method: as §2

[9] = target: T1, human FcγRIIb extracellular domain with …; experiment: SPR; binding amount divided by that of 04H1637-G1m/04L1610-lam1
[10] = target: T2, human FcγRIa extracellular domain with …; experiment: SPR Biacore T200, Ab captured via Fab-lambda, pH 7.4, 25C;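 also: antibodies captured on a streptavidin chip carrying biotinylated anti-Fab-lambda, with each FcγR injected as analyte in phosphate buffer. KD fitted by 1:1 Langmuir or steady-state model depending on receptor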
Method: as §1

[11] = target: T3, human FcγRIIa H allotype extracellular …; experiment: as above
Method: as §1

[12] = target: T4, human FcγRIIIa V allotype extracellular …; experiment: as above
Method: as §1

[13] = target: T6, human FcγRIIIa F allotype extracellular …; experiment: as above
Method: as §1

[14] = target: T7, human FcγRIIa R allotype extracellular …; experiment: as above
Method: as §1

T5 sequence (P55899 24-290 limits assumed, chain 1 of 2): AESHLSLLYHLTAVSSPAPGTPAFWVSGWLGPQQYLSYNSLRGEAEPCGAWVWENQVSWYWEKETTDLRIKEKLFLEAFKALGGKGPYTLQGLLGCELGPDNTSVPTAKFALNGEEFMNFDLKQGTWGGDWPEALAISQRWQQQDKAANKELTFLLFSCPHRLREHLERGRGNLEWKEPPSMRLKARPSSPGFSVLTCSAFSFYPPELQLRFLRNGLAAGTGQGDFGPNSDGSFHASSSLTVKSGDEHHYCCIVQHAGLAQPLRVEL
T5 sequence (P61769 21-119 limits assumed, chain 2 of 2): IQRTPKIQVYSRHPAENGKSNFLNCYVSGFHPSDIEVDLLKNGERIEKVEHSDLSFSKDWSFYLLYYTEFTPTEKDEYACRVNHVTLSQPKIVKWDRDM
T2 sequence (P12314 16-292): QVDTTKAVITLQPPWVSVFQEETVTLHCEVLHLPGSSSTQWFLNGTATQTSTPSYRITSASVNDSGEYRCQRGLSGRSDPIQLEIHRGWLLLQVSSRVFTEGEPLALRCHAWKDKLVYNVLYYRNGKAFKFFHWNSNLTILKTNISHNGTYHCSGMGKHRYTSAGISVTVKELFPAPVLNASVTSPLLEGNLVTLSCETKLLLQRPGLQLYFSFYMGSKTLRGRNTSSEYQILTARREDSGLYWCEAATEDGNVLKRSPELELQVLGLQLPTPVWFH
T6 sequence (P08637 17-208): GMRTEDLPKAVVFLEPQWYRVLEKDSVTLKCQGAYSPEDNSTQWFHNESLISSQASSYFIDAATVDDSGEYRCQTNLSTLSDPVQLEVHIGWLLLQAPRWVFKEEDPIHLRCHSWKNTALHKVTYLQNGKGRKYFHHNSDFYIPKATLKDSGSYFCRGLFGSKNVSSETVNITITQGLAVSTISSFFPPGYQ
T4 sequence (P08637 17-208 F176V): as the sequence (P08637 17-208) above, with F160V counted along it

B1: 04H1637-G1m/04L1610-lam1 (antibody, human IgG1, lambda)
heavy: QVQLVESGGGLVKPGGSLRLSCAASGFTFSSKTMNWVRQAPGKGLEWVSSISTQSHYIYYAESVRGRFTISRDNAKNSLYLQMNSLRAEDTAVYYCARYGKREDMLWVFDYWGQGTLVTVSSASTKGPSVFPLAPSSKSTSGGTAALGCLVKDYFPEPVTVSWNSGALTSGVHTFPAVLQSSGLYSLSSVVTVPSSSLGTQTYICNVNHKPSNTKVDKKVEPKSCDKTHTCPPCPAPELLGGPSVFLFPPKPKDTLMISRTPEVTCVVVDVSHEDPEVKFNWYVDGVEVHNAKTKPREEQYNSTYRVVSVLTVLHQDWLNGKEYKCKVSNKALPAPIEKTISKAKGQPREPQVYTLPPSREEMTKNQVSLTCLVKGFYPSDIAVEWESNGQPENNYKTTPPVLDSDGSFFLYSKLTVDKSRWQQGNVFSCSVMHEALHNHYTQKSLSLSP
light: QSALTQPPSASGSPGQSVTISCEGPSTGVGDYNWVHWYQQHPGKAPKLMIYFTSKKPSGVPDRFSGSKSGNTASLTVSGLQAEDEADYYCQTYAAPLGPMFGGGTKLTVLGQPKAAPSVTLFPPSSEELQANKATLVCLISDFYPGAVTVAWKADSSPVKAGVETTTPSKQSNNKYAASSYLSLTPEQWKSHRSYSCQVTHEGSTVEKTVAPTECS
[1]
  Binding amount: 0.008
[2]
  Relative value to KD between G1m and hFcγRs: 1
[3]
  Relative value to KD between G1m and hFcγRs: 1
[4]
  Relative value to KD between G1m and hFcγRs: 1
Human FcRn [5]
  Relative value to KD between G1m and hFcRn: 1
[6]
  Relative value to KD between G1m and hFcγRs: 1
[7]
  Relative value to KD between G1m and hFcγRs: 1
Human FcRn [8]
  Kd: 1300 nM
[9]
  Relative binding amount: 1
[10]
  Kd: 0.049 nM
[11]
  Kd: 1500 nM
[12]
  Kd: 240 nM
[13]
  Kd: 1400 nM
[14]
  Kd: 2000 nM

B2: 04H1654-KT462/04L1610-lam1//04H1656-HT445/04L1610-lam1 (antibody, human IgG1, lambda)
heavy 1: QVQLVESGGGVVQPGGSLRLSCAASGFTFSSKTMNWVRQAPGKGLEWVSSISTQSHYIYYARSVRGRFTISRDNAKNSLYLQMNSLRAEDTAVYYCARYGKREDMLWVFDYWGQGTLVTVSSASTKGPSVFPLAPSSKSTSGGTAALGCLVKDYFPEPVTVSWNSGALTSGVHTFPAVLQSSGLYSLSSVVTVPSSSLGTQTYICNVNHKPSNTKVDKRVEPKSCDKTHTCPPCPAPEFQWGPMVFLFPPKPKDVLMISRTPEVTCVVVDVSDEEPEVKFNWYVDGVEVHNAKTKPREEQYNATYRVVSVLPVLHQDWLNGKEYKCKVSNDALPAPIEKTISKAKGQPREPQVYTLPPSRKEMTKNQVSLTCLVKGFYPSDIAVEWESNGQPENNYKTTPPVLDSDGSFFLYSKLTVDKSRWQQGNVFSCSVMHEALHNHYTQKSLSLSP
heavy 2: QVQLVESGGGVVQPGGSLRLSCAASGFTFSSKTMNWVRQAPGKGLEWVSSISTQSHYIYYAESVRGRFTISRDNAKNSLYLQMNSLRAEDTAVYYCARYGAREDMLWVFDYWGQGTLVTVSSASTKGPSVFPLAPSSKSTSGGTAALGCLVKDYFPEPVTVSWNSGALTSGVHTFPAVLQSSGLYSLSSVVTVPSSSLGTQTYICNVNHKPSNTKVDKRVEPKSCDKTHTCPPCPAPELLAGPSVFLFPPKPKDVLMISRTPEVTCVVVDVSHEEPEVKFNWYVDGVEVHNAKTKPREEQYNATYRVVSVLPVLHQDWLNGKEYKCKVSNDALPKPDEETISKAKGQPREPQVYTLPPSREEMTKNQVSLTCLVKGFYPSDIAVEWESNGQPENNYKTTPPVLDSDGSFFLYSKLTVDKSRWQQGNVFSCSVMHEALHNHYTQESLSLSP
light: B1 light
notes: Heterodimerized antibody, IGHG1*03 constant region, E356K / K439E
[1]
  Binding amount: 0.025
[2]
  Relative value to KD between G1m and hFcγRs: 1.6
[3]
  Relative value to KD between G1m and hFcγRs: 13.9
[4]
  Relative value to KD between G1m and hFcγRs: 110
Human FcRn [5]
  Relative value to KD between G1m and hFcRn: 0.9
[6]
  Relative value to KD between G1m and hFcγRs: 415
[7]
  Relative value to KD between G1m and hFcγRs: 13
Human FcRn [8]
  Kd: 1500 nM
[9]
  Relative binding amount: 3.1
[10]
  Kd: 0.03 nM
[11]
  Kd: 110 nM
[12]
  Kd: 2.2 nM
[13]
  Kd: 3.3 nM
[14]
  Kd: 160 nM

B3: 04H1654-KT481/04L1610-lam1//04H1656-HT498/04L1610-lam1 (antibody)
heavy 1: B2 heavy 1 with I337E, N439A, Y441T, Q443R, S445E
heavy 2: B2 heavy 2 with K335A, D337E, N439A, Y441T, Q443R, S445E
light: B1 light
notes: Heterodimerized antibody with N434A/Y436T/Q438R/S440E
[1]
  Binding amount: 0.022
[2]
  Relative value to KD between G1m and hFcγRs: 1.5
[3]
  Relative value to KD between G1m and hFcγRs: 6.5
[4]
  Relative value to KD between G1m and hFcγRs: 152
Human FcRn [5]
  Relative value to KD between G1m and hFcRn: 2.3
[6]
  Relative value to KD between G1m and hFcγRs: 495
[7]
  Relative value to KD between G1m and hFcγRs: 7.7
Human FcRn [8]
  Kd: 570 nM
[9]
  Relative binding amount: 2.7
[10]
  Kd: 0.033 nM
[11]
  Kd: 230 nM
[12]
  Kd: 1.6 nM
[13]
  Kd: 2.8 nM
[14]
  Kd: 260 nM

B4: 04H1654-KT461/04L1612-lam1//04H1656-HT443/04L1612-lam1 (antibody, human IgG1, lambda)
heavy 1: B2 heavy 1 with I337E
heavy 2: B2 heavy 2 with K335A, D337E
light: B1 light with N33T, W34Y
notes: Heterodimerized antibody
[1]
  Binding amount: 0.025
[2]
  Relative value to KD between G1m and hFcγRs: 1.3
[3]
  Relative value to KD between G1m and hFcγRs: 7.1
[4]
  Relative value to KD between G1m and hFcγRs: 159
Human FcRn [5]
  Relative value to KD between G1m and hFcRn: 0.8
[6]
  Relative value to KD between G1m and hFcγRs: 537
[7]
  Relative value to KD between G1m and hFcγRs: 8.2
Human FcRn [8]
  Kd: 1600 nM
[9]
  Relative binding amount: 3.1
[10]
  Kd: 0.039 nM
[11]
  Kd: 210 nM
[12]
  Kd: 1.5 nM
[13]
  Kd: 2.6 nM
[14]
  Kd: 250 nM

B5: 04H1654-KT473/04L1610-lam1//04H1656-HT482/04L1610-lam1 (antibody)
heavy 1: B2 heavy 1 with N439A, Y441T, Q443R, S445E
heavy 2: B2 heavy 2 with N439A, Y441T, Q443R, S445E
light: B1 light
notes: Heterodimerized antibody with N434A/Y436T/Q438R/S440E; also called SW1610-ART6+ACT1
[1]
  Binding amount: 0.026
[2]
  Relative value to KD between G1m and hFcγRs: 1.1
[3]
  Relative value to KD between G1m and hFcγRs: 18
[4]
  Relative value to KD between G1m and hFcγRs: 115
Human FcRn [5]
  Relative value to KD between G1m and hFcRn: 2.3
[6]
  Relative value to KD between G1m and hFcγRs: 363
[7]
  Relative value to KD between G1m and hFcγRs: 13.9
Human FcRn [8]
  Kd: 580 nM
[9]
  Relative binding amount: 3.2
[10]
  Kd: 0.046 nM
[11]
  Kd: 81 nM
[12]
  Kd: 2.1 nM
[13]
  Kd: 3.8 nM
[14]
  Kd: 150 nM

B6: 04H1654-KT462/04L1612-lam1//04H1656-HT445/04L1612-lam1 (antibody, human IgG1, lambda)
heavy 1: B2 heavy 1
heavy 2: B2 heavy 2
light: B1 light with N33T, W34Y
notes: Heterodimerized antibody
[1]
  Binding amount: 0.028
[2]
  Relative value to KD between G1m and hFcγRs: 1.2
[3]
  Relative value to KD between G1m and hFcγRs: 16.1
[4]
  Relative value to KD between G1m and hFcγRs: 106
Human FcRn [5]
  Relative value to KD between G1m and hFcRn: 0.8
[6]
  Relative value to KD between G1m and hFcγRs: 408
[7]
  Relative value to KD between G1m and hFcγRs: 14.2
Human FcRn [8]
  Kd: 1600 nM
[9]
  Relative binding amount: 3.4
[10]
  Kd: 0.041 nM
[11]
  Kd: 91 nM
[12]
  Kd: 2.3 nM
[13]
  Kd: 3.4 nM
[14]
  Kd: 140 nM

B7: 04H1654-KT473/04L1612-lam1//04H1656-HT482/04L1612-lam1 (antibody)
heavy 1: B2 heavy 1 with N439A, Y441T, Q443R, S445E
heavy 2: B2 heavy 2 with N439A, Y441T, Q443R, S445E
light: B1 light with N33T, W34Y
notes: as for B3
[1]
  Binding amount: 0.026
[2]
  Relative value to KD between G1m and hFcγRs: 1
[3]
  Relative value to KD between G1m and hFcγRs: 16.2
[4]
  Relative value to KD between G1m and hFcγRs: 110
Human FcRn [5]
  Relative value to KD between G1m and hFcRn: 2.1
[6]
  Relative value to KD between G1m and hFcγRs: 355
[7]
  Relative value to KD between G1m and hFcγRs: 13.8
Human FcRn [8]
  Kd: 620 nM
[9]
  Relative binding amount: 3.2
[10]
  Kd: 0.048 nM
[11]
  Kd: 91 nM
[12]
  Kd: 2.2 nM
[13]
  Kd: 3.9 nM
[14]
  Kd: 150 nM

B8: 04H1654-KT461/04L1610-lam1//04H1656-HT443/04L1610-lam1 (antibody, human IgG1, lambda)
heavy 1: B2 heavy 1 with I337E
heavy 2: B2 heavy 2 with K335A, D337E
light: B1 light
notes: Heterodimerized antibody
[1]
  Binding amount: 0.025
[2]
  Relative value to KD between G1m and hFcγRs: 1.5
[3]
  Relative value to KD between G1m and hFcγRs: 7.3
[4]
  Relative value to KD between G1m and hFcγRs: 156
Human FcRn [5]
  Relative value to KD between G1m and hFcRn: 0.9
[6]
  Relative value to KD between G1m and hFcγRs: 526
[7]
  Relative value to KD between G1m and hFcγRs: 8.4
Human FcRn [8]
  Kd: 1500 nM
[9]
  Relative binding amount: 3.1
[10]
  Kd: 0.032 nM
[11]
  Kd: 200 nM
[12]
  Kd: 1.5 nM
[13]
  Kd: 2.6 nM
[14]
  Kd: 240 nM
